Read-outs that look alike come from different tables or passages of the source. Bridges are numbered along the chain shown (N, C = ends). Where no end group is shown, it is not given here. [ ]: non-standard residue; d: D form. Arg(NO2) = N=C(NCCC[C@H](N)C(=O)O)N[N+](=O)[O-]
B1: SEQ. ID. NO. 57 (peptide)
peptide: DFDMLRCMLGRVFRPCYQV
modifications: disulfide 7-16
notes: label prints Tyr^17 while the radioligand is Phe^13, Tyr^19; also called Phe^13, Tyr^17
B2: human MCH (melanin-concentrating hormone), SEQ. ID. NO. 1 (ligand)
peptide: DFDMLRCMLGRVYRPCWQV
modifications: disulfide 7-16 (inferred)
notes: cyclic 19-amino acid peptide; also called hMCH; mammalian MCH
B3: SEQ. ID. NO. 41 (peptide)
peptide: AFDMLRCMLGRVYRPCWQV
modifications: disulfide 7-16
notes: positions 1-19 as in hMCH; also called Ala^1

Experiments:
human MCH-1R [1] = target: T1, human MCH-1R (human, UniProt Q99705 1-353); assay: SPA competition with [125I]-human MCH (Phe13, Tyr19) on receptor membranes
T1 construct: also called MCH-R1
T1 sequence (Q99705 whole entry, form in doubt): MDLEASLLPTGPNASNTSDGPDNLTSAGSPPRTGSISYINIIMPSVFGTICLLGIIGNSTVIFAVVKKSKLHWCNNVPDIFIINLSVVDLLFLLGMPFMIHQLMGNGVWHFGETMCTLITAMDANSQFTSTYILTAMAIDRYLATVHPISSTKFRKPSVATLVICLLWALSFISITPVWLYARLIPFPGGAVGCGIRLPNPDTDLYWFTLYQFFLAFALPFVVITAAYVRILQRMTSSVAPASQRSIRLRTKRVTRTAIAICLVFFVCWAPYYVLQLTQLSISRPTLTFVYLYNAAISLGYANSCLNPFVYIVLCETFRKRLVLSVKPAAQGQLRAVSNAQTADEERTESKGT
Method: (§1) For the SPA-based assay, WGA-PVT beads (NEN Life Sciences Products) were resuspended in Dulbecco's PBS with calcium and magnesium (500 mg beads in 4 ml PBS). […] The suspension was mixed gently for 20 minutes, 12.3 ml of assay buffer and protease inhibitors were added (final concentration given): 2 μg/ml leupeptin, 10 μM phosphoramidon, 40 μg/ml bacitracin, 5 μg/ml aprotinin, 0.1 mM Pefabloc.
(§2) Coated beads were kept on ice until use. […] Binding reactions were allowed to proceed at room temperature for 3 hours. Quantitation was performed by scintillation counting (TopCount device).

[2] = target: T2, human melanin concentrating hormone type 2 receptor (MCH-2R) (human, UniProt Q969V1 1-340); assay: as above
T2 construct: also called MCH-R2
T2 sequence (Q969V1 whole entry, form in doubt): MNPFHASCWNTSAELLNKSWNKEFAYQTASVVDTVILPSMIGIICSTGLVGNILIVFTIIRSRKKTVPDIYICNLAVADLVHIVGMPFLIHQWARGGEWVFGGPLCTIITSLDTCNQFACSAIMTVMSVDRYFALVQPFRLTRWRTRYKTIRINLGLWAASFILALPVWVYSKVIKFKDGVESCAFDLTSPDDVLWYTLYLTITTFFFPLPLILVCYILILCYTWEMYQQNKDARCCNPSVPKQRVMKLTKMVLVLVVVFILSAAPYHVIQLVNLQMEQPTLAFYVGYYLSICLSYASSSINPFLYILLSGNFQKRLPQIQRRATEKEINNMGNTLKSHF
Method: as §1, §2

human MCH-1R [3] = target: T1, human MCH-1R; assay: cell-based or functional assay
[4] = target: T2, human melanin concentrating hormone …; assay: cell-based or functional assay
human MCH-1R [5] = target: T1, human MCH-1R; assay: cell-based or functional assay; remark: listed apart in the source
[6] = target: T2, human melanin concentrating hormone …; assay: cell-based or functional assay; remark: listed apart in the source
[7] = target: T2, human melanin concentrating hormone …; assay: SPA competition with [125I]-human MCH (Phe13, Tyr19) on receptor membranes; remark: listed apart in the source
Method: as §1, §2

human MCH-1R [8] = target: T1, human MCH-1R; assay: cell-based or functional assay; remark: listed apart in the source
[9] = target: T2, human melanin concentrating hormone …; assay: cell-based or functional assay; remark: listed apart in the source
[10] = target: T2, human melanin concentrating hormone …; assay: SPA competition with [125I]-human MCH (Phe13, Tyr19) on receptor membranes; remark: listed apart in the source
Method: as §1, §2

human MCH-1R [11] = target: T1, human MCH-1R; assay: cell-based or functional assay; remark: listed apart in the source

Binder | IC50 (human MCH-1R [1]) [nM] | IC50 [2] [nM] | Activation % at 10 µM (aequorin functional assay) (human MCH-1R [3]) [%] | EC50 (aequorin functional assay) (human MCH-1R [3]) [nM] | Activation % at 10 µM (aequorin functional assay) [4] [%] | EC50 (aequorin functional assay) [4] [nM] | Activation % at 10 µM (aequorin functional assay) (human MCH-1R [5]) [%] | Activation % at 10 µM (aequorin functional assay) [6] [%] | IC50 [7] [nM] | Activation % at 10 µM (aequorin functional assay) (human MCH-1R [8]) [%] | Activation % at 10 µM (aequorin functional assay) [9] [%] | EC50 (aequorin functional assay) [9] [nM] | EC50 (aequorin functional assay) [6] [nM] | IC50 [10] [nM] | Activation % at 10 µM (aequorin functional assay) (human MCH-1R [11]) [%] | EC50 (aequorin functional assay) (human MCH-1R [11]) [nM]
B1 | 0.6 | 0.07 | 97 | 40 | 92 | 1.5 |  |  |  |  |  |  |  |  |  | 
XCMLGRVYRPC (not fully specified; (?NH2)-Arg at position 6) [SEQ. ID. NO. 40] |  |  |  |  |  |  | 49 | 103 |  |  |  |  |  |  |  | 
B2 |  | 0.9 | 100 |  | 100 | 44.7 | 100 | 100 | 0.5 | 100 | 100 | 30.7 | 30.7 | 0.5 |  | 
DFDALRCMLGRVYRPCWQV (disulfide 7-16, also called Ala^4) [SEQ. ID. NO. 44] | 0.5 | 2.4 | 97 | 12.7 | 100 | 38.9 |  |  |  |  |  |  |  |  |  | 
DFDMLRCMLGAVYRPCWQV (disulfide 7-16) [SEQ. ID. NO. 49] | 169 | 290 | 24 | 5240 |  | > 1000 |  |  |  |  |  |  |  |  |  | 
DFDMLRCMLGRVYRPCWQA (disulfide 7-16, also called Ala^19) [SEQ. ID. NO. 56] | 0.4 | 8.7 | 100 | 17.4 | 99 | 58.9 |  |  |  |  |  |  |  |  |  | 
DFDMLACMLGRVYRPCWQV (disulfide 7-16, also called Ala^6) [SEQ. ID. NO. 46] | 4.5 | 200 | 81 | 161 | 76 | 853 |  |  |  |  |  |  |  |  |  | 
DFDMLRCMLGRVYRPCWAV (disulfide 7-16, also called Ala^18) [SEQ. ID. NO. 55] | 0.7 | 9.5 | 99 | 36.1 | 97 | 80.8 |  |  |  |  |  |  |  |  |  | 
DFDMLRCALGRVYRPCWQV (disulfide 7-16) [SEQ. ID. NO. 47] | 40.1 | 40 | 56 | 731 | 94 | 125 |  |  |  |  |  |  |  |  |  | 
DFDMLRCMLGRAYRPCWQV (disulfide 7-16, also called Ala^12) [SEQ. ID. NO. 50] | 0.9 | 25 | 95 | 38.3 | 98 | 83.6 |  |  |  |  |  |  |  |  |  | 
DFDMLRCMLGRVYRPCAQV (disulfide 7-16, also called Ala^17) [SEQ. ID. NO. 54] | 0.1 | 5.1 | 100 | 6.8 | 95 | 54.2 |  |  |  |  |  |  |  |  |  | 
B3 |  | 2.1 |  |  | 96 | 114 |  |  |  |  |  |  |  |  |  | 
DFAMLRCMLGRVYRPCWQV (disulfide 7-16, also called Ala^3) [SEQ. ID. NO. 43] | 0.5 | 1.2 | 97 | 30.2 | 95 | 57.2 |  |  |  |  |  |  |  |  |  | 
DFDMLRCMLGRVYRACWQV (disulfide 7-16, also called Ala^15) [SEQ. ID. NO. 53] | 1.9 | 19 | 99 | 34.7 | 96 | 84.2 |  |  |  |  |  |  |  |  |  | 
DADMLRCMLGRVYRPCWQV (disulfide 7-16, also called Ala^2) [SEQ. ID. NO. 42] | 0.2 | 1.1 | 97 | 9.9 | 102 | 28.6 |  |  |  |  |  |  |  |  |  | 
DFDMARCMLGRVYRPCWQV (disulfide 7-16, also called Ala^5) [SEQ. ID. NO. 45] | 0.3 | 2 | 96 | 20.3 | 94 | 17.9 |  |  |  |  |  |  |  |  |  | 
DFDMLRCMLGRVYAPCWQV (disulfide 7-16, also called Ala^14) [SEQ. ID. NO. 52] | 1.4 | 62 | 97 | 28.3 | 81 | 186 |  |  |  |  |  |  |  |  |  | 
DFDMLRCMAGRVYRPCWQV (disulfide 7-16, also called Ala^9) [SEQ. ID. NO. 48] | 0.9 | 9.5 | 96 | 22 | 92 | 95.7 |  |  |  |  |  |  |  |  |  | 
DFDMLRCMLGRVARPCWQV (disulfide 7-16, also called Ala^13) [SEQ. ID. NO. 51] | 253 | 670 | 20 | 2300 |  | > 1000 |  |  |  |  |  |  |  |  |  | 
Ac-RCML[dA][Arg(NO2)]VYRPC-NH2 (disulfide 2-11 (inferred), also called D-Ala^10, Arg(NO2)^11) [SEQ. ID. NO. 37] |  |  |  |  |  |  |  |  |  |  | 34 | 260 |  | 490 | 0.1 | > 10000
